Results taken from paper PMC3682188, “Membrane Binding and Self-Association of the Epsin N-Terminal Homology Domain” (Journal of Molecular Biology, 2012).

Target: the molecule itself
Test: EPR spectroscopy (spin-spin interaction of singly labeled protein, with spin dilution); bound to preformed lipid tubules (10% cholesterol/40% phosphatidylcholine/40% galactocerebrosides/10% PIP2); 10 uM protein with 60 ug tubes in 100 ul, 10 min at RT, pelleted at 152,800g; 20 mM Hepes pH 7.4, 150 mM NaCl; fully labeled compared with 33% labeled and 67% unlabeled protein

B1: rat epsin 1 ENTH domain (1-164), spin-labeled at residue 14 (domain or fragment)
chain: GSPGIHMSTSSLRRQMKNICHNYSEAEIKVREATSNDPWGPSSSLMSEIADLTYNVVAFSEIMSMIWKRLNDHGKNWRHVYKAMTLMEYLIKTGSERVSQQSKENMYAVQTLKDFQYVDRDGKDQGVNVREKAKQLVALLRDEDRLREERAHALKTKEKLAQTATASSAA
modifications: MTSL spin label (R1 side chain) on the cysteine introduced at position 14
notes: cysteine-less background (C96S) with a single cysteine at position 14; same construct as the crystallography study (PDB 1H0A); also called V14; source: E. coli BL21 (DE3), purified (glutathione-Sepharose, thrombin, ion exchange, gel filtration), labeled with MTSL; not shown: GST, N-terminal, cleaved
- binding result: binds
